This is an account of results in PMC12455474, “Single‐Molecule Protein Profiling Using Nanopores and Dimeric Aptamer‐Modified DNA Carriers”.

One data set has as its target human alpha-thrombin (human, UniProt P00734;P00734 328-363;364-622). Briefly: single-molecule nanopore (carrier dimerization, biphasic Hill fit); apparent sandwich Kd; 100 pM of each carrier; hook effect at high thrombin; Carriers (200 pM total) incubated with protein at 37 °C for 2 h; nanopore measurement in 100 mM KCl, 10 mM Tris-EDTA pH 8.0, -300 mV.
A further data set has as its target VEGF-165 (human, UniProt P15692-4 27-191). Briefly: single-molecule nanopore (carrier dimerization, biphasic Hill fit); apparent sandwich Kd; 200 pM carrier; Carriers (200 pM total) incubated with protein at 37 °C for 2 h; nanopore measurement in 100 mM KCl, 10 mM Tris-EDTA pH 8.0, -300 mV. Particulars: protein: recombinant; chain copies: 2; 2 identical carriers per protein dimer; first 12 nt pair with carrier overhang.

The next data set deals with PDGF-BB (human, UniProt P01127 82-190). The description is as above. Particulars: protein: recombinant; chain copies: 2; 2 identical carriers per protein dimer; first 12 nt pair with carrier overhang.
Chain of PDGF-BB (P01127 82-190): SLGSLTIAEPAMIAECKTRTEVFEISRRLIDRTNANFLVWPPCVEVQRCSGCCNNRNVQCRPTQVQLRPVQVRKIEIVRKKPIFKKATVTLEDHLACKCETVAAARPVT

Chain of VEGF-165 (P15692 other isoform, or with tags, fused parts or gaps): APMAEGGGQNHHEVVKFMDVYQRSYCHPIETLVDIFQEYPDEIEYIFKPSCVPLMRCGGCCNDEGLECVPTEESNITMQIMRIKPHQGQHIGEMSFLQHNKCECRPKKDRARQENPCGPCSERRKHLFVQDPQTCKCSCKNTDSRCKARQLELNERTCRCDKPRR

B1: HD1 carrier + HD22 carrier (thrombin probes 1 and 2) (structured_DNA)
DNA 1: GGGCGGCGACCTTTTTTTGGTTGGTGTGGTTGG
DNA 2: GGGCGGCGACCTTTTTTTAGTCCGTGGTAGGGCAGGTTGGGGTGACT
modifications: 5' phosphate on probes, ligated to carrier
For B1, in the data set with human alpha-thrombin, the Kd is roughly 9.1 pM. As to GGGCGGCGACCTTTTTTTTGTGGGGGTGGACGGGCCGGGTAGA (structured_DNA, 5' phosphate, ligated to carrier) [VEGF probe (V7t1) carrier], the Kd with VEGF-165 is roughly 0.3 pM.

B2: PDGF probe carrier (structured_DNA)
DNA: GGGCGGCGACCTTTTTTTCACAGGCTACGGCACGTAGAGCATCACCATGATCCTGTG
modifications: 5' phosphate, ligated to carrier
With B2, the Kd in the data set with PDGF-BB was roughly 1.8 pM.
